Results reported in article PMC9482650, “Quantitative fragmentomics allow affinity mapping of interactomes” (Nature Communications, 2022).

Assays:
Test in all cases: holdup assay
Set-up in all cases: key: below the threshold = too weak to quantify, mostly under pKd 3.1 to 4
Details in all cases: plain residues with an end cap or a label only (N-terminal biotin on a linker: ado-ado)
[1] = target: MAGI1_2, Q96QZ7
[2] = target: T1, RADIL, Q96JH8
T1 sequence (Q96JH8 971-1071, limits assumed, looked up): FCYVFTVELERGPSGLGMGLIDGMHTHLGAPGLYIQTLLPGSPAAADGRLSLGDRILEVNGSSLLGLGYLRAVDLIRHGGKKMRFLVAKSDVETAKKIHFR

[3] = target: T2, DLG3_2, Q92796
T2 sequence (Q92796 221-321, limits assumed, looked up): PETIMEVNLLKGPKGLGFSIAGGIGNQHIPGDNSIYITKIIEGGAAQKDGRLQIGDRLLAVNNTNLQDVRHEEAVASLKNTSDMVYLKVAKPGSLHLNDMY

[4] = target: T3, DLG3_1, Q92796
T3 sequence (Q92796 125-227, limits assumed, looked up): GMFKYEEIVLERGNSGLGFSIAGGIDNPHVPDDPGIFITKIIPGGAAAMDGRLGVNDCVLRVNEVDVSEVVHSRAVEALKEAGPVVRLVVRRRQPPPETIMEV

[5] = target: DLG4_3, P78352
[6] = target: PDLIM1, O00151
[7] = target: GORASP2, Q9H8Y8
[8] = target: AHNAK1, Q09666
[9] = target: LDB3, O75112
[10] = target: DLG4_2, P78352
[11] = target: T4, ARHGEF11, O15085
T4 sequence (O15085 42-136, limits assumed, looked up): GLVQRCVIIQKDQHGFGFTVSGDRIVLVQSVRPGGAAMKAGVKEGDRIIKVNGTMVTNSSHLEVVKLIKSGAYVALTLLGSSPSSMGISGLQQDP

[12] = target: SCRIB_3, Q14160
[13] = target: GRASP, Q7Z6J2
[14] = target: FRMPD3, Q5JV73
[15] = target: TJP1_2, Q07157
[16] = target: MAGI2_2, Q86UL8
[17] = target: DLG1_3, Q12959
[18] = target: T5, MPP6, Q9NZW5
T5 sequence (Q9NZW5 125-219, limits assumed, looked up): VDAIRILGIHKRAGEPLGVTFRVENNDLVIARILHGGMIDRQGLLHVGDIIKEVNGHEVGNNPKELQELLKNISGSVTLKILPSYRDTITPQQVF

[19] = target: DLG1_1, Q12959
[20] = target: T6, SIPA1L2, Q9P2F8
T6 sequence (Q9P2F8 945-1036, limits assumed, looked up): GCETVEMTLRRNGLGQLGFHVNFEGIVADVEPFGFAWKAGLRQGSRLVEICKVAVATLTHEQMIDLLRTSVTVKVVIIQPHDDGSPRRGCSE

[21] = target: GOPC, Q9HD26
[22] = target: T7, SHANK1, Q9Y566
T7 sequence (Q9Y566 658-767, limits assumed, looked up): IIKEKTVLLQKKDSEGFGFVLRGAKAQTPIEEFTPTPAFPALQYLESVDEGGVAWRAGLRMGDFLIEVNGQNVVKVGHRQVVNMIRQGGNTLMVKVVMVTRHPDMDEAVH

[23] = target: MAGI3_2, Q5TCQ9
[24] = target: SCRIB_2, Q14160
[25] = target: T8, GRIP1_5, Q9Y3R0
T8 sequence (Q9Y3R0 568-668, limits assumed, looked up): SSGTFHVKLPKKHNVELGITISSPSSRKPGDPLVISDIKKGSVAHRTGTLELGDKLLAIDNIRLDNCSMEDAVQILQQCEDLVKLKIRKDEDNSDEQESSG

[26] = target: IL16_1, Q14005
[27] = target: T9, LIN7A, O14910
T9 sequence (O14910 103-200, limits assumed, looked up): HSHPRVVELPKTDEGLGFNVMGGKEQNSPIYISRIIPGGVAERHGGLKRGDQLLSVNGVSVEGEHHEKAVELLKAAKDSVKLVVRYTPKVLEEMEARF

[28] = target: TJP2_1, Q9UDY2
Sequence of TJP2_1, Q9UDY2 (Q9UDY2 24-128): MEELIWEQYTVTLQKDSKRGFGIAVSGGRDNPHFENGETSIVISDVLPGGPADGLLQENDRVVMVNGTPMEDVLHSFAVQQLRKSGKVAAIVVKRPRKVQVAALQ

Sequence of SCRIB_2, Q14160 (Q14160 857-960): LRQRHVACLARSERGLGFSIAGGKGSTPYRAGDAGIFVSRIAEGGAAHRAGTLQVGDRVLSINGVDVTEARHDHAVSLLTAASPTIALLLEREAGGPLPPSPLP
Sequence of IL16_1, Q14005 (Q14005 210-306): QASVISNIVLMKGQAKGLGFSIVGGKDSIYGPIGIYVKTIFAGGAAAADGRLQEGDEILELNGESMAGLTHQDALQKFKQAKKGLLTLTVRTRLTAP
Sequence of GRASP, Q7Z6J2 (Q7Z6J2 96-193): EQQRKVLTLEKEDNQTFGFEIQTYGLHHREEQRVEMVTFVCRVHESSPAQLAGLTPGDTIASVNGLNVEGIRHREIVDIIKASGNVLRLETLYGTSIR
Sequence of SCRIB_3, Q14160 (Q14160 999-1103): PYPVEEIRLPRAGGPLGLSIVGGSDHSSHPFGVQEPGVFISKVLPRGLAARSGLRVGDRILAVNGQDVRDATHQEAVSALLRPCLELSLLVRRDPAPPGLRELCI
Sequence of TJP1_2, Q07157 (Q07157 181-274): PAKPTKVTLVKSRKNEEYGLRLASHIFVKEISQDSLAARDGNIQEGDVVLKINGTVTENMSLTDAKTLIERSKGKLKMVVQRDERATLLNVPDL
Sequence of DLG4_3, P78352 (P78352 306-403): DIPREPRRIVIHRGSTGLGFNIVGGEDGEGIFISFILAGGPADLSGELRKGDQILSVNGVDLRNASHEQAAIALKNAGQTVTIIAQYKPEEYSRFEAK
Sequence of MAGI2_2, Q86UL8 (Q86UL8 410-522): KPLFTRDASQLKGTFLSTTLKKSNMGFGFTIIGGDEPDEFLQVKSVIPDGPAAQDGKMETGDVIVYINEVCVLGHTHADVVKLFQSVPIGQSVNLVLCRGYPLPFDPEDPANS
Sequence of PDLIM1, O00151 (O00151 1-87): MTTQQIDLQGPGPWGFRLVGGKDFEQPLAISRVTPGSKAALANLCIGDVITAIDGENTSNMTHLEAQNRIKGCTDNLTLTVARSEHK
Sequence of MAGI3_2, Q5TCQ9 (Q5TCQ9 398-503): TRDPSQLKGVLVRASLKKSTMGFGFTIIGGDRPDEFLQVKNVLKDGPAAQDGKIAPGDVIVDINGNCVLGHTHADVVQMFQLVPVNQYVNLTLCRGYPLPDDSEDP
Sequence of AHNAK1, Q09666 (Q09666 4-100): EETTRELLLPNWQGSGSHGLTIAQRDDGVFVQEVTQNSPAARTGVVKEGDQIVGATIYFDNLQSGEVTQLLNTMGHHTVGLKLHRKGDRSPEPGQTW
Sequence of LDB3, O75112 (O75112 1-94): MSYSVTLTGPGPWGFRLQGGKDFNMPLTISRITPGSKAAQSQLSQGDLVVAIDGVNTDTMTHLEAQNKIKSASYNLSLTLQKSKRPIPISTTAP
Sequence of MAGI1_2, Q96QZ7 (Q96QZ7 456-580): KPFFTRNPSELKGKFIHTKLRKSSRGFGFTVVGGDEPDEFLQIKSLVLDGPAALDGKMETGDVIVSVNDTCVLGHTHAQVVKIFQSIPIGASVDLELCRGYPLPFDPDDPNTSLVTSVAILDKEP
Sequence of DLG4_2, P78352 (P78352 155-259): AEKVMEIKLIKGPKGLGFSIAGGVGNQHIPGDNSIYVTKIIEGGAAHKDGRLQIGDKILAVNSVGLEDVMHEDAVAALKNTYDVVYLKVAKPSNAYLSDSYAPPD
Sequence of FRMPD3, Q5JV73 (Q5JV73 12-100): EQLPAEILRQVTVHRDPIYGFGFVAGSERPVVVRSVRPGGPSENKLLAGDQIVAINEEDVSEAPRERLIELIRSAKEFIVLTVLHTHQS

Binder	pKd [1]	pKd [2]	pKd [3]	pKd [4]	pKd [5]	pKd [6]	pKd [7]	pKd [8]	pKd [9]	pKd [10]	pKd [11]	pKd [12]	pKd [13]	pKd [14]	pKd [15]	pKd [16]	pKd [17]	pKd [18]	pKd [19]	pKd [20]	further results
AKPSRISTVV [IQSEC2, Q5JU85]	4.82	4.32	5.33	4.3	4.18	below the threshold	4.47	below the threshold	below the threshold	5.31	4.59	3.74	4.41	below the threshold	below the threshold	5.23	below the threshold	below the threshold	4.81	below the threshold	pKd [21]: 4.35; pKd [22]: 3.96; pKd [23]: 5.42; pKd [24]: below the threshold; pKd [25]: below the threshold; pKd [26]: below the threshold; pKd [27]: below the threshold; pKd [28]: 4.46
TSQESEDTYL [TBC1D10A, Q9BXI6]	below the threshold	below the threshold	3.61	below the threshold	below the threshold	below the threshold	below the threshold	below the threshold	below the threshold	below the threshold	below the threshold	4.16	below the threshold	4.39	below the threshold	below the threshold	below the threshold	below the threshold	below the threshold	below the threshold	pKd [21]: below the threshold; pKd [22]: 4.99; pKd [23]: below the threshold; pKd [24]: below the threshold; pKd [25]: below the threshold; pKd [26]: below the threshold; pKd [27]: below the threshold; pKd [28]: below the threshold
DDENIRTSDV [PLEKHA2, Q9HB19]	below the threshold	below the threshold	4.38	below the threshold	below the threshold	below the threshold	below the threshold	below the threshold	below the threshold	4.38	4.2	3.99	3.82	below the threshold	below the threshold	below the threshold	below the threshold	below the threshold	3.8	below the threshold	pKd [21]: 3.5; pKd [22]: below the threshold; pKd [23]: 4.05; pKd [24]: 3.75; pKd [25]: below the threshold; pKd [26]: 3.83; pKd [27]: below the threshold; pKd [28]: below the threshold
KKMPSIESDV [GRIN2A, Q12879]	below the threshold	below the threshold	5.25	4.35	below the threshold	3.93	below the threshold	below the threshold	below the threshold	5.29	below the threshold	4.85	below the threshold	below the threshold	below the threshold	4.05	below the threshold	below the threshold	4.75	below the threshold	pKd [21]: below the threshold; pKd [22]: below the threshold; pKd [23]: 4.32; pKd [24]: 4.43; pKd [25]: below the threshold; pKd [26]: 4.05; pKd [27]: below the threshold; pKd [28]: below the threshold
HSGYRLNDYV [CLDN14, O95500]	below the threshold	4.6	below the threshold	below the threshold	below the threshold	below the threshold	3.85	below the threshold	below the threshold	below the threshold	3.71	below the threshold	3.74	below the threshold	below the threshold	below the threshold	below the threshold	3.9	below the threshold	below the threshold	pKd [21]: below the threshold; pKd [22]: below the threshold; pKd [23]: below the threshold; pKd [24]: below the threshold; pKd [25]: below the threshold; pKd [26]: below the threshold; pKd [27]: below the threshold; pKd [28]: 4.72
